Experiment [1] deals with A2ML1-CC (TEV-P-cleaved A2ML1t with covalently conjugated TEV-P) (human | tobacco etch virus) (UniProt A8K2U0). The experiment in a line: cryo-EM structure; TEV-P-cleaved A2ML1t samples on grids; monomers and dimers separated by 2D classification, multi-class ab initio reconstruction and heterogeneous refinement.
The target in experiment [2] is TEV-P-cleaved A2ML1t prepared in the presence of BAPN, without conjugated TEV-P (human) (UniProt A8K2U0). Described as above.

Sequence of TEV-P-cleaved A2ML1t prepared in the presence of BAPN, without conjugated TEV-P (A8K2U0 19-1454): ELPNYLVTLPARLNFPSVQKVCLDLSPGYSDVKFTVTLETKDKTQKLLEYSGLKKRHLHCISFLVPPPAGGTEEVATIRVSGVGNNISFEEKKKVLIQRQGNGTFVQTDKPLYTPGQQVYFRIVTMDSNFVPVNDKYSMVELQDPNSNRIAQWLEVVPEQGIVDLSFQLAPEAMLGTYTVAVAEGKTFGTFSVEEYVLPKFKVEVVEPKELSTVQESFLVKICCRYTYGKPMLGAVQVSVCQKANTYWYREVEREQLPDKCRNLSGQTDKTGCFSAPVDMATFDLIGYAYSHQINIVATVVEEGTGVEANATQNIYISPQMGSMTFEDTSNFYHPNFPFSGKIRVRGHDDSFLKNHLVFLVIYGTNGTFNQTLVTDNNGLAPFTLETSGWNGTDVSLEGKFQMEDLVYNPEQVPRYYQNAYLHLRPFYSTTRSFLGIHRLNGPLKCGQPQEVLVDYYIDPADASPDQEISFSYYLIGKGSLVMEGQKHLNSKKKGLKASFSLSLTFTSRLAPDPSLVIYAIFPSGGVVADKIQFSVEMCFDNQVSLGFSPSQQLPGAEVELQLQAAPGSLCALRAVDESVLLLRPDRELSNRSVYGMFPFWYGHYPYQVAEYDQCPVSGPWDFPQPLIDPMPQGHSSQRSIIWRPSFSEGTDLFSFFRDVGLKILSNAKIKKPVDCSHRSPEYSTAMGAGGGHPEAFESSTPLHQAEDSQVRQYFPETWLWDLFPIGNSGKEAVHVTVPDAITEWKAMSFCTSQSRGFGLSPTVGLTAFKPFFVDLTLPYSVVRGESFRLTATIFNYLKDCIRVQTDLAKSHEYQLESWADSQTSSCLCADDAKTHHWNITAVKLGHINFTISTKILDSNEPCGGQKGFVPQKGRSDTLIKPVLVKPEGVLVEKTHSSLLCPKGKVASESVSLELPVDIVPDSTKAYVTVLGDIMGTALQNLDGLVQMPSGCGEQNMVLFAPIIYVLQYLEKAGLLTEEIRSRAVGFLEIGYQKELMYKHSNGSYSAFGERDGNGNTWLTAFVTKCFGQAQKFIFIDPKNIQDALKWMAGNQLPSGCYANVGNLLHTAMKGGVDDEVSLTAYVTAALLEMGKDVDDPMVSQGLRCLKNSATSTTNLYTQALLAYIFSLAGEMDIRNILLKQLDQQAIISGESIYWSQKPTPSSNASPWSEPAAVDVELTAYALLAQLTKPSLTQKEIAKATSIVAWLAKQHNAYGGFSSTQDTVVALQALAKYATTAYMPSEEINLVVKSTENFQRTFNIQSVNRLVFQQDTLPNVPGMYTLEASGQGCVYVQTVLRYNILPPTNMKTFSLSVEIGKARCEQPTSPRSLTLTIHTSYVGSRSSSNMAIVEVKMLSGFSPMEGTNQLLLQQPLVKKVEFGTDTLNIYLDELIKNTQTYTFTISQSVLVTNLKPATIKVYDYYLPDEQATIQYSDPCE
Sequence of TEV-P-cleaved A2ML1t prepared in the presence of BAPN, without conjugated TEV-P (A8K2U0 19-1454): as above
Sequence of A2ML1-CC (TEV-P-cleaved A2ML1t with covalently conjugated TEV-P) (A8K2U0 whole entry, looked up, one chain of several): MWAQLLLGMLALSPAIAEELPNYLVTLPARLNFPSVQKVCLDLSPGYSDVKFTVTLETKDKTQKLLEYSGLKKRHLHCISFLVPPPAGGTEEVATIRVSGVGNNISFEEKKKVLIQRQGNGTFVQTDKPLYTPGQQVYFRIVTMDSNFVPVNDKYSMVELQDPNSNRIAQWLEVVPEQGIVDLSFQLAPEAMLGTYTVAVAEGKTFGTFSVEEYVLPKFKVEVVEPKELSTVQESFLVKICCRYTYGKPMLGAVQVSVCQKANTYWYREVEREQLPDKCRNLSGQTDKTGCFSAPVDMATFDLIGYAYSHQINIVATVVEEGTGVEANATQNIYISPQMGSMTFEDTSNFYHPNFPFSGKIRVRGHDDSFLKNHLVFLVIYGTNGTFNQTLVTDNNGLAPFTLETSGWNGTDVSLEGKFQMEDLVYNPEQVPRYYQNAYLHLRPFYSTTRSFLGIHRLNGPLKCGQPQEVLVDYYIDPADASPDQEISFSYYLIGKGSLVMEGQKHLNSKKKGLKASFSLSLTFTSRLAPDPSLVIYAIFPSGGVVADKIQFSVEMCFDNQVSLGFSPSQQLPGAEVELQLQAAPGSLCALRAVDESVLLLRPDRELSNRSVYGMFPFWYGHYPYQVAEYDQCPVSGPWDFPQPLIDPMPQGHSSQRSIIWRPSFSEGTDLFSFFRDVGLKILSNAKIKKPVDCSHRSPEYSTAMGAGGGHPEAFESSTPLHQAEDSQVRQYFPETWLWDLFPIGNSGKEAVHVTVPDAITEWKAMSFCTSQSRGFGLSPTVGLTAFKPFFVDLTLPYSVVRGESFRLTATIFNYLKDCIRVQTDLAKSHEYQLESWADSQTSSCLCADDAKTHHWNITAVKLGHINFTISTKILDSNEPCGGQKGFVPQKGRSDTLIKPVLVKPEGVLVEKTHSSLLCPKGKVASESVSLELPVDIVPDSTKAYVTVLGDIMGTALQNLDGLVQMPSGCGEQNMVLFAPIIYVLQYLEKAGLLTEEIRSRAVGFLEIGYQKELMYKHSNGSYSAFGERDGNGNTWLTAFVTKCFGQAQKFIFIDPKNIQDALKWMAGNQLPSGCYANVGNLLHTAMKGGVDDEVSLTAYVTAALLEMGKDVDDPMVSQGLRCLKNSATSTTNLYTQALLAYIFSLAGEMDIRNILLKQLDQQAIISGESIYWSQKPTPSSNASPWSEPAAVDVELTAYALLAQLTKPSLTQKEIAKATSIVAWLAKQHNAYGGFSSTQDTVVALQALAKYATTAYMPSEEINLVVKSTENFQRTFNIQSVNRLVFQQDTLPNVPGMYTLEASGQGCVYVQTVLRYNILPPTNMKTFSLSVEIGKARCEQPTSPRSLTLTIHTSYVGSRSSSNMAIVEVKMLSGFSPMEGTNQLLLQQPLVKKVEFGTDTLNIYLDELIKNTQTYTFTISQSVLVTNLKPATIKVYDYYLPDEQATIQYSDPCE

Consider “A2ML1-CC (TEV-P-cleaved A2ML1t with covalently conjugated TEV-P) (from UniProt A8K2U0 19-1454; A8K2U0 19-1454) (complex)”, for which, in experiment [1], the fraction of picked particles that were dimers (fraction of particles) was determined as 0.167. Regarding “TEV-P-cleaved A2ML1t prepared in the presence of BAPN, without conjugated TEV-P (from UniProt A8K2U0 19-1454; A8K2U0 19-1454)”, in experiment [2], the fraction of picked particles that were dimers (fraction of particles) turned out to be 0.167 and the stoichiometry N – broadly, a count of units in the complex or per binding partner – stood at 2.
